Test results as given in patent publication US20170184591A1.

Columns and labels:
[1] = biological target: EcSkp, biotin conjugate (naked chaperone without fused target) (Escherichia coli) (UniProt P0AEU7); assay: asymmetric DAGS ECL, Skp-Bi and FkpA-Ru 250 ng/ml each; sample: pool of anti-HTLV-negative human sera; background signal, duplicate 2
[2] = biological target: EcSkp, biotin conjugate (naked chaperone without fused target) (Escherichia coli) (UniProt P0AEU7); assay: asymmetric DAGS ECL, Skp-Bi and FkpA-Ru 250 ng/ml each; sample: pool of anti-HTLV-negative human sera; background signal, duplicate 1
[3] = biological target: EcSkp, biotin conjugate (naked chaperone without fused target) (Escherichia coli) (UniProt P0AEU7); assay: asymmetric DAGS ECL, Skp-Bi and FkpA-Ru 10 ng/ml each; sample: pool of anti-HTLV-negative human sera; background signal, duplicate 2
[4] = biological target: EcSkp, biotin conjugate (naked chaperone without fused target) (Escherichia coli) (UniProt P0AEU7); assay: asymmetric DAGS ECL, Skp-Bi and FkpA-Ru 10 ng/ml each; sample: pool of anti-HTLV-negative human sera; background signal, duplicate 1
[5] = biological target: EcFkpA, biotin conjugate (naked chaperone without fused target) (Escherichia coli) (UniProt P45523); assay: asymmetric DAGS ECL, FkpA-Bi and Skp-Ru 250 ng/ml each; sample: pool of anti-HTLV-negative human sera; background signal, duplicate 1
[6] = biological target: EcFkpA, biotin conjugate (naked chaperone without fused target) (Escherichia coli) (UniProt P45523); assay: asymmetric DAGS ECL, FkpA-Bi and Skp-Ru 10 ng/ml each; sample: pool of anti-HTLV-negative human sera; background signal, duplicate 1
[7] = biological target: EcFkpA, biotin conjugate (naked chaperone without fused target) (Escherichia coli) (UniProt P45523); assay: asymmetric DAGS ECL, FkpA-Bi and Skp-Ru 10 ng/ml each; sample: pool of anti-HTLV-negative human sera; background signal, duplicate 2
[8] = biological target: EcFkpA, biotin conjugate (naked chaperone without fused target) (Escherichia coli) (UniProt P45523); assay: asymmetric DAGS ECL, FkpA-Bi and Skp-Ru 250 ng/ml each; sample: pool of anti-HTLV-negative human sera; background signal, duplicate 2

UniProt P45523, sequence (P45523 26-270 limits assumed): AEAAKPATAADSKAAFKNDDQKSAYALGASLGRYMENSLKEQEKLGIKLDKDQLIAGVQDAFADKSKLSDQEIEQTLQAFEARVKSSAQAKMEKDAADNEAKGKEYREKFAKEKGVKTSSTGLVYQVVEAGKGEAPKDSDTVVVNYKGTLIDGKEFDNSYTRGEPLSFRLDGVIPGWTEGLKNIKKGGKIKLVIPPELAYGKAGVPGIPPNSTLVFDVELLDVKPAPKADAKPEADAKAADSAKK
UniProt P0AEU7, sequence (P0AEU7 21-161 limits assumed): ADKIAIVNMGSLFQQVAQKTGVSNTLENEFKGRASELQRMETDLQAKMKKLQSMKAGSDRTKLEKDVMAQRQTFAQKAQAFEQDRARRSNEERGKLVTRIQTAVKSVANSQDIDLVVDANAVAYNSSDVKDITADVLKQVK

Substance: EcFkpA, ruthenium conjugate (naked chaperone without fused target) (from UniProt P45523 26-270)
- Signal (counts) [1]: 2760 counts
- Signal (counts) [2]: 2670 counts
- Signal (counts) [3]: 561 counts
- Signal (counts) [4]: 567 counts

Substance: EcSkp, ruthenium conjugate (naked chaperone without fused target) (from UniProt P0AEU7 21-161)
- Signal (counts) [5]: 854 counts
- Signal (counts) [6]: 447 counts
- Signal (counts) [7]: 439 counts
- Signal (counts) [8]: 864 counts
